According to a protein production outcome set (Wang et al. 2014):

experiment: label from the status in PepcDB records
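Also: failed if final PepcDB status was selected cloned or expressed and not failed if soluble or beyond.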

Sequence | protein production
MNTTQGEYTTTAKWLHWLMATLIALAWLIGFYVSDLPKGPEKAAIMAWHKGLGTAVLALITVRLAWRLLHPPPRLPDTLSPGLQRAAHSAHWTLYGLMIAQPLSGWAVSSANGYPVKLFGLITLPALVEKNEVLAQTFVEIHEFLAWGLALLVVGHVVMAIKHHHVDRNGILHRMLPGRRPTSD | failed
MNTVDEDIKFKEVPGITNILLLSSDARPGEDVSRSDSIMILTIDNINKKLKVTSLMRDMLVKIDGHGEEKLNHAFAYGGPTKTIETIQNNFGIKLNNYVIVDFNAFVKVIDAINGIEVTVKDYELDELNKYILDGGGSEEDLLPSPGTYNLNGYQALSYARIRKVGNGEYERTERQRAVLQIALEKVKDMSTVKLVSLLNELFPYVKTNISLGNAMDYGFTALNVGKKCNFEIEQFRVPLDSISKGGIINNKGWVFVIDKVETSKALQEFIFNDNKNYEPDTSNFDSIIEQYFNDYDIKDDTTHPDYEYVPSINTNGNFEKPKNNSGNSSNNNSNNKVEKPSNQGNSVNSSNKPSNGSTSTGNNSTEKPNTSEKPSIPQETPTEKPLEHHHHHH | failed
MNTVPLKPQRLLSLDVFRGMTIVLMIFVNGQAAIDPYPIFEHVDWNGCTLADLVFPFFLFIVGLTSVISLKNQMERKAKTSLYSAIIERSVVLFLLGLFLNVFPHPIEFDSIRIYGILQRIAVCYLISAFIYLNTSIKTQFFIFLVLLLGYWIIMTQVPVPGYGANQLTKDGSWVSYFDQLFFSASHLYEKTYDPEGFLSTFTSIATTLSGVLAGSLLISPCNQFKKFYLLAGIGLLFLLLGWLWNMSFPINKNLWTSSYVLWTSGLALLAFAFCYLLIDRFGVKKWSVFFKVFGMNALFAFVFHVLLLKLQYAFKITTPDGSKMVLISYLKDYFFGGFSNHNAALLYSICFLFLNFLVVLILYKRNVFIRI | failed
MNTYLKNSPGFWIGRIHHKLKNRMNQRLKPYDLTAEQRLILLRLFEFGEMTQQQLCQKTFTEPSNITLTLRRMESHGYVRKKPHPKDKRASLIEATPKALSIQNELERIGLEITDSLLLEVDPSEKETLLRVLQAMYQKMLQEEAIEEFSF | failed
MNVEKLKRLQAQVRIGGKGTPRRKKKVMHQTAATDDKKLQSSLKKLSVSTIPGIEEVNIIKDDLTVIHFNNPKAQASLSANTFAVTGHGETRKVVEMLPDILPQLGQETVVQLRMYANAMNSQKGAPGSGDGPLPAEEDDDVPLLVGDFDEVAKVEATKQPVHEPKESAEIKAKDKQQQQPKKEQKQSAKVPETTNPSENPKEKQENKKGQAKNNKKGDPQTNKDKTNKSKDQAKGQPAPQANKETTQAAQALKQNPSKPAVQQKKDQVLAVDQKIEANGAIQKAQQPKPAETKSTDQKVEPKSAEKQVDKAKPIEQTKTKESKVEHPKPAQKQLDQNTQAKPTAERSEAKPVVPTPEPQKSAPPAVQTLAQIVALPAEKPANEAVAAPKAEEQKKDSSGPAKVEPAITPSAPQPVTTAEPPKSALKQDSPPKSAPKQGSPPKNVPKQESPPQSAPKQDSPPKGAPKQDSPPKGAPKQDSPPKGAPKQDSAPQQKTPPPVKQEVAPAKQDEPPAKQDAPPAKQDAPVPVPEVIKTLAPEVPNVSQAPAQPQGQAALASEKPADAPKAIEEPKAAPKKESPPPTKPVTATVPVAPATPAEAPSPLAPSTPPSTPTSVPPSAATVTPPSPATVTPPSPAVVTPPQKQSAAPQAGIKKQEAGTKTKQQQPANKPQQPQKQPPGGAGGSAGPGGNKGVQKQPNPNAKPAVAPKPAQATPKPAAASPKASPNQTNPQQQQGKAANKASPPKQTGPTGGQQKSAANASKATASPKSAASPKATSPKAGTPTNPASASGGPN | failed
MNVFAFSISGGGSERSYKETEKTSAMTTTHSTKLQPSQAILFKMREDAPPLNLTEEMPPPFPTKANYLIHPVRLEHHHHHH | failed
MNVIGKVTVLPQLPAEIARLSELAYNLYWSWTPRAQALYRDLSPELWERFQHNPVRLLLEADQDRLNAAAQDPAYLGRYAQVMADFDAYMGKKDTWAARHAPQMKPVAYFSMEYAFHESLPIYSGGLGVLAGDHCKSASDLGLPFTAVGMLFSQGYFRQLFDKDGWQNEAYDELDLTTLPIQPAQSAAGEDIRVSVRIAGREVAVKVWTLQVGRVRVLLLDSNVPDNSEDDRKLTARLYGGNQELRVQQYVLLGVAGIRALRALDVPASVYHMNEGHAALMALERMREYVAAGQDFRTAAELAASSTLFTTHTPVAAGNDAFTYELMDKYIGEWPGLLHAGRDELYALARHDQQWDGHTVPAFSMTVFALSMSRAANGVSELHGEVSRGMWNFLYPGAEENEVPIGHVTNGAHNLTFTSQRMRDLLSTVLPEDWTERLEDETMWQAVEQLTEEQLSNVQREMKREMITFVRGRVREQLLRNGASAADVAATDNLLDEGTLTIGFARRFATYKRATLLLRDKPRLAAIVNNPERPVQFVFAGKAHPADNPGKAFIQEIYRTSQEPEFRGKIVILENYDMNVARHLVQGVDIWLNNPRRPLEASGTSGMKASFNGSPNFSVLDGWWREGYDGTNGWPIGEEREYADLNVQDDADAFDLYQRLEHEIAPRYYGHAQGNASWAHTVRDAIETVSPRFSMQRQVLDYVQQYYLPLGQRGTQLADHGGARARDLAAWKAWVRQQWPHTSISAQANLPATARPGEQVTVSAQVNPAGIRPEELRVEAVLKRGDEVQRYPLAPGEGGQYSAEIPLDDSGLYSVGVRMLPLIDGLSNDLEAGLIKWA | failed
MNVLDGAALEIGVPTVRTGIAGDGTLISVSGGSGADATPESDRILGALVLDDTHIDAVAVRRRRRGQGIGTALVEAALDRRDRLTAEFDADVRPFYEQLGFDVELLDDEDGRFRGIRK | failed
MNVSRLCSLYPTLLIPLLFVAGCGLFASSTAPVSRSPESMAREAEEFQSSRRFEDAIAQWRKVKESYISPELITLAEIKIADAQFDSGNYIEAAASYEEFRKLHPNHEKSAYALYRQGLSYFNQIHGFDTDQTPVSNTVTIFESFLRLYPQSEHAEEVRNKLDAARQNQVQYEIYVGQFYYRTEKYTSAIKRLEDALKRYPRSPLHDETLYYLGKAYIKAGDKAGGREAFQRLFNEFRTSKYVDEARSFLDKNF | failed
MNWGEGEWNSFFHFFTKEFINMSESFKELFEQSIAGAQFYPGAIITAKVIDIDDDFVTLNAGLKSEGIVAVEEFYDKNGELEVKVGDTVEVALDSVEDGHGETLLSREKAKRQEAWRKLSKCHENNETVTGLISGKVKGGFTVEIGSIRAFLPGSLVDVRPVRDPSYLEGKELEFKVIKMDLKRNNIVVSRRAVVEEESSADRQALLESLHDGQELHGIVKNLTDYGAFIDLGGIDGLLHITDISWKRVKHPSEVLSVGQDVKVKVLSFDSERNRVSLGMKQLGNDPWVDLVERYPIGKRLQGKVTNITDYGCFVEIEEGVEGLVHMSEMDWTNKNVHPSKVVSLGDVVDVMVLEIDEERRRISLGMKQCVGNPWQQFASTHNKGEKVKGKIRSITDFGIFIGLDGDIDGLVHLSDISWTVPGEEAVKQFKKGQELEAVILAIDPERERISLGLKQLEGDSFASFAETYTKGSIVKGTVTAVEPKTVTVALAEDVSGTIRVSELSDERVDDATTIVKVGDEVEAKITNIDRKNRTISLSVKAKDAQDEADAIKKYSRTEAASTTLGDLLKEKMASKEGELEHHHHHH | not failed
MNWIILTIAGCFEVLFTFCMGKVKETTGTEMYLWFTGFLIATLISMLLLVKATHNLPIGTAYAVWTGIGAVGTVLVGILVFKEPAGFWRLFFIVMLIGSIIGLKMVSHG | failed
MNWKRLVQFYSVPPSQAALALGMIGLGQAWALYVPDIGTPIRPFLASFGALLLAPVLIKYATNPRLFMADIKHPLSGSLMAPMSMALLILTDYLASVAPLIAYPLWCLAVLLHFTMMVLFFGFQLMNFKMSNIVPSWFLYPVGLISSSLAGSQFGHNLFSETLAIMCIGIYFFMLPLVLYRLVFFGSLPRRARPTLAIMAAPVNLSLAAYLVNFPQPDPILTGALAGIAITMTLLIYLCYFRLLRLKFQPSIAAVTFPSVISAIAMHRLTSFFAQSHPQWHWLHDFGFLELSIATVLVVWVSAGYVKMYWPEIVRTPTKQA | failed
MNYEEIVCDANNLYRAYKASVKTSKWKETTQKFMMNFLRYIFSIQDDLINRTLQNGPTQEFTLFERGRVRPITSIQIRDRIIRHVLCDEILLPEVKKHIIYDNCASIKGRGISHQRDRFEVHLRKYYRLYGNEGWILFGDFSKFYDNIIHEIAKRELLRLFDDDEFIDWLLTQIFDGFKIDVSYMTDEEYATCMTDTFNKLEYRNIPESKLTGEKWMEKSVNIGDQLSQVIGIYYPYRIDNYVKYVRSQKFYGRYMDDWYIMNPSKEELLDLLDHIHQIAEEYGIHINRKKTRIVKISSTYKFLQIKYSLTDSGKVIKRINPKRVTAMRRKLKRLAVKVKNEEISYENVENMFRSWMGGFYKLLSKEQRKNLIGLYEDLFEKSIEIVNKKMIIVDKTR | failed
MNYGFVKVAAAVPRVKVADCKFNSERLEGLITIAEGKGVQILTFPEMCITGYTCGDLFAQQLLLEQAEMALIQILNSTRQLDIISILGMPVVVNSTVINAAVVIQKGKILGVVPKTYLPNYKEFYEQRWFTSALQVSENSVRLCGQIVPMGNNLLFETAETTFGIEICEDLWATVPPSSSLALQGAEIIFNLSADDEGIGKHNYLCSLISQQSARCISGYVFSSSGFGESTTDVVFAGNGLIYENGYLLARSERFCMEEQLIINEIDVECIRAERRVNTTFAANKANCPGKEAVRISTEFVNSKDLNLTRTFNPHPFVPQGNELNSRCEEIFSIQIAGLAQRLLHTGAKTAVIGISGGLDSTLALLVCVKTFDKLGLSRKDILGITMPGFGTTDRTYHNAIDLMNSLGVSIREISIREACIQHFKDIGHDLNIHDVTYENSQARERTQILMDIANQTWGMVIGTGDLSELALGWATYNGDHMSMYGVNAGIPKTLVKHLVQWVAENGMDETSKATLLDIVDTPISPELEHHHHHH | not failed
MNYKVLAYITAYNDYFALNRCIDGLINQTYKIDYLLIVDNSSRPIPIQKLGNNLSIEVQHHPENIGVAGGLTLGIQYAIHKKFDFIWLFDQDSTPYENALENLIYFYDKYINKSEIGILSCAVQDRETGQINCGFIYKNYRFYQQQIDSRKAVYECDAVITSGTLLNCHAAKEIGLPNESLFMDAVDFDYCMKLRKQDYKIFTVCNAKINHRFGNSKSIQLFNRTKFIYLYSSLRYFYVHRNHTYLETRLAKNCLFFIISTFYRIFKSFRKIFVILLFEDSQRLLKIYACSKGTVDGLLGKLGKTWT | failed
MNYSRIAEAIEYIRAHYKEQPGLDEVAEKVHLSPFHFQRIFTEWAGISPKKFLQYISLEHHHHHH | failed
MNYVELLGYLAMLLVGLSFLMKDVIKLRFVNALGCICFSIYGILIGSFPVAALNGFVACTNIYFLINNNKD | failed
MNYYGTSMWASDNNTASNSDSSLNLLGILLLASENNKLINNTVLTNLYGVNLMAESTGIGDKTGPSENILASNIISYNLGTGILFDESYGNLIYNNSFDNIWNVEDESLNTWNSSEIGNYWSDYEGEDADGDGVGDTPYLINSHTGSMDYLPVTRSSDFPELEHHHHHH | failed
MPAASQDNDGGPSQSGGPMADPAPLIDTDPARIGEYTLLGRLGQGGQGVVYLGSAPDGARVAVKTLHRDALDLPGLREQLAEEVEMARRVARFCTAQVLAADLDADPPYVVSEYVEGPSLQAVVRERGPLRGASLERLAVGTLTALAAIHQAGIVHRDFKPANVLMAPGGPRVIDFGIARALEGTAILTSRIAGTPAYMAPEQITGGPLGPAVDMFAWGATLVYAANGRGPFGHGSLKAVVQRVINDEPDFGELSGTLREIAERCLNKDAAQRPTAAETLMLVLGIEGPPPTEEPSTDTAIPVTHQTLVAGAIAAADTGEQESAAELYRSYPPAPPPPHSNVAAQPSPTPPPHPQTASGPQPSLPSTGAQHSGYGYATGPHQSGYGYATGPQQGGYAPPPGPHQHAYPTPHSGNAAIPPHGGPSGPYAPAQPWMPSTGGYPQTSQPYSGQQYQQQAEGTSTAFVLGVVSIAVIAGVLLFILLFLLIGSLG | failed
MPAFRVPRVRRAQHAEVALGAVLGVMLIGLSVLISRFHLQPVEGVTVLAQLADASLGHNWAFYVVQFATMILLALSANTSFGGLPVLLKLPARDNYLPHVFALKADRQVHRHGVLTLAGVVAALLVFSGGDTNTLVPLFAIGVFIGFTIAQVGMVRHWRAE | failed
